The record followed here is patent publication US5716804, “Mammalian interleukin-10 (IL-10) super-activating receptors; and variants” (Schering Corporation, dated 1998).

One may read the Kd as the free concentration of one partner at which half of the binding sites on the other are occupied at equilibrium, for simple one-to-one binding.

Several values for one entry are separate records, joined by “and”; a condition that tells them apart may be missing. Equal values may be shown once.

One experiment concerns the target mIL-10R Δ282-389 (mouse). As to conditions: scale: log greater proliferative response than wild-type mIL-10R.
The target of the next experiment is mIL-10R Δ282-458 (mouse). To be noted: scale: log greater proliferative response than wild-type mIL-10R.
Another experiment has as its target mIL-10R Δ282-414 (mouse). To be noted: scale: log greater proliferative response than wild-type mIL-10R.
The next experiment concerns the target the mutant mIL-10R. The experiment in a line: binding of iodinated hIL-10 to Ba/F3 transfectants, Scatchard analysis.
Experiment [1] concerns the target T1, ^125 I-hIL-10 (iodinated recombinant CHO-derived human IL-10) (human, UniProt P22301, iodinated (125I); labelled residue not stated). The experiment in a line: Scatchard analysis of 125I-hIL-10 saturation binding to Ba/F3 transfectants. The procedure:
Approximately 5×10^6 cells for each cell line tested were pelleted by centrifugation at 200×g for 10 min, washed in PBS, and resuspended in 200 μl binding buffer (PBS, 10% fetal calf serum, 0.1% NaN_3) containing iodinated hIL-10 at a concentration of 100–500 pM. After incubation at 4° C. for two hours in a rotary mixer, the cells were centrifuged at 200×g for 10 min, resuspended in 100 μl binding buffer without labeled hIL-10, layered over 200 μl of a 1:1 mixture of dibutyl- and dioctyl-phthalate oils in elongated microcentrifuge tubes, centrifuged at 400×g for 5 min at 4° C., and quick frozen in liquid nitrogen. The cell pellets were then cut and counted in a Clinigamma 1272 counter (Pharmacia LKB). Non-specific binding was determined by performing the binding in the presence of 500 to 1000-fold molar excess unlabeled hIL-10. For saturation binding experiments, two-fold serial dilutions of approximately 600 pM solution of iodinated hIL-10 were used, with a parallel series done to determine non-specific binding. Scatchard analysis was performed on the data points obtained using the EBDA Program (Elsevier-Biosoft, Cambridge, U.K.). Antibody inhibition was done under the above binding conditions but with the addition of a 100-fold molar excess of each of the indicated monoclonal antibodies. Cytokine specificity was determined under similar conditions but with the addition of 500-fold molar excess of the cytokines indicated. Similar measurements can be made using the BIACORE apparatus (Pharmacia LKB) following manufacturer's recommendations.

For experiment [2], the target named is T1, ^125 I-hIL-10 (iodinated recombinant …). The experiment can be described thus: binding of iodinated hIL-10 to Ba/F3 transfectants.

In the case of IL-10 (ligand), the proliferative response to IL-10 of Ba/F3 transfectants with mIL-10R Δ282-389 (mouse) was 1.5 and 2; with mIL-10R Δ282-458 (mouse) it was 1.5 and 2; in the experiment with mIL-10R Δ282-414 (mouse), 1.5 and 2.
In the experiment with the mutant mIL-10R, “^125 I-hIL-10 (iodinated recombinant CHO-derived human IL-10) (from UniProt P22301) (ligand)” registered a Kd of 0.4 to 0.6 nM.

B1: mIL-10R Δ282-414 (receptor)
chain: LEFIAYGTELPSPSYVWFEARFFQHILHWKPIPNQSESTYYEVALKQYGNSTWNDIHICRKAQALSCDLTTFTLDLYHRSYGYRARVRAVDNSQYSNWTTTETRFTVDEVILTVDSVTLKAMDGIIYGTIHPPRPTITPAGDEYEQVFKDLRVYKISIRKFSELKNATKRVKQETFTLTVPIGVRKFCVKVLPRLESRINKAEWSEEQCLLITTEQYFTVTNLSILVISMLLFCGILVCLVLQWYIRHPGKLPTVLVFKKPHDFFPANPLCPETPDAIHIVEEKDQVMVTFQGYQKQTRWKAEAAGPAECLDEEIPLTDAFDPELGVHLQDDLAWPPPALAAGYLKQESQGMASAPPGTPSRQWNQLTEEWSLLGVVSCEDLSIESWRFAHKLDPLDCGAAPGGLLDSLGSNLVTLPLISSLQVEE
With B1, in experiment [1], the Kd is 0.67 nM.

B2: mIL-10R Δ282-389 (receptor)
chain: LEFIAYGTELPSPSYVWFEARFFQHILHWKPIPNQSESTYYEVALKQYGNSTWNDIHICRKAQALSCDLTTFTLDLYHRSYGYRARVRAVDNSQYSNWTTTETRFTVDEVILTVDSVTLKAMDGIIYGTIHPPRPTITPAGDEYEQVFKDLRVYKISIRKFSELKNATKRVKQETFTLTVPIGVRKFCVKVLPRLESRINKAEWSEEQCLLITTEQYFTVTNLSILVISMLLFCGILVCLVLQWYIRHPGKLPTVLVFKKPHDFFPANPLCPETPDAIHIVSPGQPKYTQDASALGHVCLLEPKAPEEKDQVMVTFQGYQKQTRWKAEAAGPAECLDEEIPLTDAFDPELGVHLQDDLAWPPPALAAGYLKQESQGMASAPPGTPSRQWNQLTEEWSLLGVVSCEDLSIESWRFAHKLDPLDCGAAPGGLLDSLGSNLVTLPLISSLQVEE
For the molecule B2, the binding result in experiment [2] is given as “binds”.

B3: mIL-10R Δ483-559 (receptor)
chain: LEFIAYGTELPSPSYVWFEARFFQHILHWKPIPNQSESTYYEVALKQYGNSTWNDIHICRKAQALSCDLTTFTLDLYHRSYGYRARVRAVDNSQYSNWTTTETRFTVDEVILTVDSVTLKAMDGIIYGTIHPPRPTITPAGDEYEQVFKDLRVYKISIRKFSELKNATKRVKQETFTLTVPIGVRKFCVKVLPRLESRINKAEWSEEQCLLITTEQYFTVTNLSILVISMLLFCGILVCLVLQWYIRHPGKLPTVLVFKKPHDFFPANPLCPETPDAIHIVDLEVFPKVSLELRDSVLHGSTDSGFGSGKPSLQTEESQFLLPGSHPQIQGTLGKEESPGLQATCGDNTDSGICLQEPGLHSSMGPAWKQQLGYTHQDQDDSDVNLVQNSPGQPKYTQDASALGHVCLLEPKAPEEKDQVMVTFQGYQKQTRWKAEAAGPAECLDEEIPLTDAFDPELGVHLQDDLAWPPPALAAGYLKQES
Take B3: the equilibrium dissociation constant (Kd) in experiment [1] was 0.54 nM.

B4: wild-type mouse IL-10 receptor (mIL-10R) (receptor)
chain: LEFIAYGTELPSPSYVWFEARFFQHILHWKPIPNQSESTYYEVALKQYGNSTWNDIHICRKAQALSCDLTTFTLDLYHRSYGYRARVRAVDNSQYSNWTTTETRFTVDEVILTVDSVTLKAMDGIIYGTIHPPRPTITPAGDEYEQVFKDLRVYKISIRKFSELKNATKRVKQETFTLTVPIGVRKFCVKVLPRLESRINKAEWSEEQCLLITTEQYFTVTNLSILVISMLLFCGILVCLVLQWYIRHPGKLPTVLVFKKPHDFFPANPLCPETPDAIHIVDLEVFPKVSLELRDSVLHGSTDSGFGSGKPSLQTEESQFLLPGSHPQIQGTLGKEESPGLQATCGDNTDSGICLQEPGLHSSMGPAWKQQLGYTHQDQDDSDVNLVQNSPGQPKYTQDASALGHVCLLEPKAPEEKDQVMVTFQGYQKQTRWKAEAAGPAECLDEEIPLTDAFDPELGVHLQDDLAWPPPALAAGYLKQESQGMASAPPGTPSRQWNQLTEEWSLLGVVSCEDLSIESWRFAHKLDPLDCGAAPGGLLDSLGSNLVTLPLISSLQVEE
Turning to B4, the dissociation constant (Kd) in experiment [1] turned out to be 0.28 nM.

B5: mIL-10R Δ282-458 (receptor)
chain: LEFIAYGTELPSPSYVWFEARFFQHILHWKPIPNQSESTYYEVALKQYGNSTWNDIHICRKAQALSCDLTTFTLDLYHRSYGYRARVRAVDNSQYSNWTTTETRFTVDEVILTVDSVTLKAMDGIIYGTIHPPRPTITPAGDEYEQVFKDLRVYKISIRKFSELKNATKRVKQETFTLTVPIGVRKFCVKVLPRLESRINKAEWSEEQCLLITTEQYFTVTNLSILVISMLLFCGILVCLVLQWYIRHPGKLPTVLVFKKPHDFFPANPLCPETPDAIHIVGVHLQDDLAWPPPALAAGYLKQESQGMASAPPGTPSRQWNQLTEEWSLLGVVSCEDLSIESWRFAHKLDPLDCGAAPGGLLDSLGSNLVTLPLISSLQVEE
With B5, the binding result in experiment [2] is “binds”.
